The Human Domainome abundance scans (Beltran et al. 2025)

B1: RanBP-type and C3HC4-type zinc finger-containing protein 1, residues 369 to 411; numbered along this chain, Q9BYM8 (parent)
chain: YHCKTPDCKGWCFFEDDVNEFTCPVCFHVNCLLCKAIHEQMNC

Variants of: B1
Assay: abundance fitness (aPCA) (normalised: wild type 0, dead -1); higher = more abundant; growth selection in yeast, the domain comes from the species named
Details: Homo sapiens

Abundance fitness, by site and new letter:
K4: R 0.021; M 0.201; G -0.222; A 0.012; N -0.134; C -0.201; H -0.174
N42: K -0.064; V -0.141; H 0.138; P 0.219; A 0.106; G 0.161; D 0.025; M -0.101; L -0.196
N19: P -0.276; L -0.081; K 0.09; W -0.152; Y -0.172; H -0.264; M -0.078; D -0.052
C8: V -0.999; Q -0.736; W -0.949; A -0.761; R -0.908; T -0.919
N30: Q -0.788; M -1.16; T -0.57; E -0.891; W -0.855; R -0.8; I -0.835; V -1.04; L -1.22; C -0.777
I37: P -0.133; E -0.181; C -0.222; L -0.219; S -0.183; W -0.39; N -0.269; M -0.214; H -0.218
D17: H -0.021; C -0.215; I -0.265; T -0.077; V 0.034; A -0.038; K 0.079; M -0.256
D16: T -0.088; M -0.244; S -0.14; R 0.044
H38: K -0.707; S -0.614; I -0.881; T -0.639; E -0.46; V -0.803; A -0.689; M -0.89; P -0.611; G -0.536; W -1; N -0.76; D -0.482
H2: K 0.095; Y 0.105; A -0.285; M -0.031; R 0.035; Q 0.091; F 0.029; T -0.149
T22: H -0.032; I -0.243; G -0.658; Q -0.118; R -0.126; S -0.267; E -0.166
C26: R -0.754; M -1.05; K -0.834; P -1; Y -0.77; D -0.567; L -0.792; H -0.537
E20: R -0.255; N -0.276; T -0.119; P -0.83; F -0.122; M -0.1; S -0.222; L -0.163; D -0.347
V18: G -0.276; F -0.272; Q 0.06; D -0.222; H -0.277; N -0.267; M -0.14; I 0.099; P 0.048
H28: E 0.005; W -0.592; C -0.205; A 0.081; M -0.065; K 0.131; Q 0.059; V -0.298
E39: L -0.106; G 0.024; Q -0.012; V -0.155; D 0.03; H -0.167; T 0.021
C34: H -0.501; M -0.881; Q -0.494; Y -0.875; G -0.467; R -0.683
F14: G 0.162; S -0.165; L 0.243; E -0.082
L33: P 0.084; H -0.062; K 0.138; V -0.072; E -0.073; Y -0.088; I -0.158; M 0.033
P24: G -0.389; N -0.233; V -0.774; I -1.09; K -0.287; C -0.658; D -0.36
V29: F -0.54; I -0.453; P -0.624; C -0.265; Q -0.311; G -0.562; W -0.319; A -0.368; L -0.215
C12: S 0.252; L -0.348; G -0.274; V 0.071; E -0.854
T5: S -0.054; N -0.236; R -0.099; H -0.159; I -0.533; G -0.308; Q -0.004; L -0.004
W11: G -0.172; P -0.529; V 0.116; E 0.184; D -0.162; A -0.006; Y -0.038
C23: M -0.895; W -0.741; E -0.82; L -0.89; Y -0.677; G -0.891
E15: H -0.321; P -0.153; K -0.169; V -0.238; C -0.32; N -0.295; G -0.204
V25: H -0.093; R -0.242; G -0.49; W -0.406; P -0.76
F21: I -0.039; P -0.688; V 0.06; W 0.083; R -0.359; C -0.186; D -0.211; E -0.501; Y -0.06; Q -0.205; T 0.03; K -0.285
C3: L -0.884; V -1.32; M -0.978; I -0.593; T -0.937; N -0.666; G -0.826; F -1.12
K9: P 0.047; W -0.105; V 0.026; F -0.378; Q -0.033; G -0.042; Y -0.485; S 0.045
M41: A 0.178; G 0.202; F -0.2; L -0.076; Y -0.173; S 0.156; V -0.008; T 0.155; D 0.094; K 0.101; Q 0.15
G10: D -0.764; Y -0.343; E -0.573; L -0.945; H -0.359
A36: G 0.051; V -0.28; E 0.058; L -0.534; Y -0.83; P -0.333
C31: Y -0.154; W -0.738; K -0.758; H -0.469; T -0.451; F -0.648; D -0.54; V -0.76; L -1.02; M -0.725; N -0.532; A -0.805
F27: T -0.068; M -0.159; K 0.108; V -0.536; S -0.11; D -0.004; E -0.184; W -0.147; P -0.62; L -0.02
D7: K -0.095; S -0.165; R -0.117; I -0.812; F -0.245; W -0.469; P -0.615; C -0.656; V -0.597; Q -0.194
C43: S -0.312; P -0.211; V -0.396; G -0.29; I -0.511; R -0.323; T -0.216; E -0.427
P6: F -0.493; Q -0.063; C -0.709; D -0.343; S -0.266; W -0.629; E -0.185; L -0.365
F13: S 0.066; C -0.111; K -0.084; T -0.084; G -0.279
K35: G 0.067; E -0.026; T -0.281; S -0.014; V -0.406; A -0.147; Y -0.273; D -0.156; I -0.843; L -0.321
L32: Q -0.168; T -0.015; C -0.27; S -0.295; K 0.037; G -0.369
Q40: R -0.022; A -0.094; C -0.139; V -0.32; H -0.031; L -0.452
Y1: K -0.336; M 0.028; S -0.409; G -0.331; D 0.004; A -0.18; H -0.256
